In this assay the target is CcdB, biotinylated (E. coli (F-plasmid), UniProt P62554 1-101). As to the kind of experiment: flow cytometry on cells.

As a reminder, the Kd is the equilibrium constant for the complex coming apart. Low values mean a tighter complex, high ones a looser complex.

Chain of CcdB, biotinylated (P62554 whole entry): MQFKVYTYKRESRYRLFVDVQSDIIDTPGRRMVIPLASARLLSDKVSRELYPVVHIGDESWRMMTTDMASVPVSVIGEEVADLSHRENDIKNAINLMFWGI

B1: CcdA wild type, displayed on the yeast surface (natural protein)
chain: MKQRITVTVDSDSYQLLKAYDVNISGLVSTTMQNEARRLRAERWKAENQEGMAEVARFIEMNGSFADENRDW
B1 had a Kd of 250 ± 50 pM.

These data come from doi:10.1101/2022.04.08.487678 (bioRxiv, 2022).
